Series [1] deals with HeLa Kyoto. The series is described as follows: thermal stability score vs G1/S (z-score of summed log2 fold changes over temperatures); higher = more thermally stable than in G1/S.
Series [2] relates to HeLa Kyoto. The series is described as follows: solubility change mitosis vs G1/S (difference of NP-40 vs SDS log2 ratios) (log2 ratio difference); higher = more soluble in mitosis.
For series [3], the system named is HeLa Kyoto. The series is described as follows: solubility in G1/S (NP-40 vs SDS abundance) (log2 ratio); higher = more soluble. The settings on record: cell cycle stage: G1/S.
Series [4] deals with HeLa Kyoto. The series is described as follows: melting temperature (median over replicates), in situ; higher = more thermally stable.
The mark [5] stands for this setting: cell cycle stage: early G1 (4.5 h after nocodazole release).
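Wherever melting temperature (median over replicates), in situ is given: HeLa Kyoto cells synchronized by double thymidine or nocodazole block, proteins quantified by TMT10plex mass spectrometry, three independent biological replicates.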
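Wherever solubility change mitosis vs G1/S (difference of NP-40 vs SDS log2 ratios) is given: synchronized HeLa Kyoto cells (double thymidine block for G1/S, nocodazole release for mitosis), protein amounts in NP-40 versus SDS lysates quantified by mass spectrometry, three biological replicates.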
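Wherever solubility in G1/S (NP-40 vs SDS abundance) is given: HeLa Kyoto cells arrested at G1/S by double thymidine block, proteins quantified by TMT10plex mass spectrometry in mild NP-40 versus SDS extracts, three biological replicates.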
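Wherever thermal stability score vs G1/S (z-score of summed log2 fold changes over temperatures) is given: synchronized HeLa Kyoto cells, proteins quantified by TMT10plex mass spectrometry, three biological replicates, mitosis taken 0.5 h after nocodazole release, G1/S directly after double thymidine block.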

As to “MSECGGRGGGSSSSEDAEDEGGGGGGPAGSDCLSSSPTLATASSAGRLRRGLRGAFLMARQRPELLCGAVALGCALLLALKFTCSRAKDVIIPAKPPVSFFSLRSPVLDLFQGQLDYAEYVRRDSEVVLLFFYAPWCGQSIAARAEIEQAASRLSDQVLFVAINCWWNQGKCRKQKHFFYFPVIYLYHRSFGPIEYKGPMSAVYIEKFVRRVMKPLLYIPSQSELLDFLSNYEPGVLGYFEFSGSPQPPGYLTFFTSALHSLKKALESTSSPRALVSFTGEWHLETKIYVLDYLGTVRFGVITNKHLAKLVSLVHSGSVYLHRHFNTSLVFPREVLNYTAENICKWALENQETLFRWLRPHGGKSLLLNNELKKGPALFLFIPFNPLAESHPLIDEITEVALEYNNCHGDQVVERLLQHLRRVDAPVLESLALEVPAQLPDPPTITASPCCNTVVLPQWHSFSRTHNVCELCVNQTSGGMKPSSVSVPQCSFFEMAAALDSFYLKEQTFYHVASDSIECSNFLTSYSPFSYYTACCRTISRGVSGFIDSEQGVFEAPTVAFSSLEKKCEVDAPSSVPHIEENRYLFPEVDMTSTNFTGLSCRTNKTLNIYLLDSNLFWLYAERLGAPSSTQVKEFAAIVDVKEESHYILDPKQALMKLTLESFIQNFSVLYSPLKRHLIGSGSAQFPSQHLITEVTTDTFWEVVLQKQDVLLLYYAPWCGFCPSLNHIFIQLARNLPMDTFTVARIDVSQNDLPWEFMVDRLPTVLFFPCNRKDLSVKYPEDVPITLPNLLRFILHHSDPASSPQNVANSPTKECLQSEAVLQRGHISHLEREIQKLRAEISSLQRAQVQVESQLSSARRDEHRLRQQQRALEEQHSLLHAHSEQLQALYEQKTRELQELARKLQELADASENLLTENTWLKILVATMERKLEGRDGAESLAAQREVHPKQPEPSATPQLPGSSPPPANVSATLVSERNKENRTD [TXNDC11]”, the thermal stability score in the series on HeLa Kyoto [1] (setting [5]) amounted to 0.926; with HeLa Kyoto [1] (cell cycle stage: mitosis), 2.27. Further, in the series on HeLa Kyoto [2], the “solubility change mitosis (log2)” value was -0.134. Moreover, the “solubility in G1/S (log2)” value in the series on HeLa Kyoto [3] is -0.00943. Besides, the melting temperature with HeLa Kyoto [4] (cell cycle stage: G1/S) worked out at 53.5 °C.

As for “MAARCSTRWLLVVVGTPRLPAISGRGARPPREGVVGAWLSRKLSVPAFASSLTSCGPRALLTLRPGVSLTGTKHNPFICTASFHTSAPLAKEDYYQILGVPRNASQKEIKKAYYQLAKKYHPDTNKDDPKAKEKFSQLAEAYEVLSDEVKRKQYDAYGSAGFDPGASGSQHSYWKGGPTVDPEELFRKIFGEFSSSSFGDFQTVFDQPQEYFMELTFNQAAKGVNKEFTVNIMDTCERCNGKGNEPGTKVQHCHYCGGSGMETINTGPFVMRSTCRRCGGRGSIIISPCVVCRGAGQAKQKKRVMIPVPAGVEDGQTVRMPVGKREIFITFRVQKSPVFRRDGADIHSDLFISIAQALLGGTARAQGLYETINVTIPPGTQTDQKIRMGGKGIPRINSYGYGDHYIHIKIRVPKRLTSRQQSLILSYAEDETDVEGTVNGVTLTSSGGSTMDSSAGSKARREAGEDEEGFLSKLKKMFTS [DNAJA3]”, the thermal stability score is -0.681 in the series on HeLa Kyoto [1] (setting [5]) and 0.373 in the series on HeLa Kyoto [1] (cell cycle stage: mitosis). Further, in the series with HeLa Kyoto [2], the “solubility change mitosis (log2)” value was -0.0129. Also, the “solubility in G1/S (log2)” value in the series with HeLa Kyoto [3] is -0.186. The melting temperature with HeLa Kyoto [4] (cell cycle stage: G1/S) was determined as 48.4 °C; with HeLa Kyoto [4] (cell cycle stage: mitosis) it was 50.3 °C.

In the case of “MQAERGARGGRGRRPGRGRPGGDRHSERPGAAAAVARGGGGGGGGDGGGRRGRGRGRGFRGARGGRGGGGAPRGSRREPGGWGAGASAPVEDDSDAETYGEENDEQGNYSKRKIVSNWDRYQDIEKEVNNESGESQRGTDFSVLLSSAGDSFSQFRFAEEKEWDSEASCPKQNSAFYVDSELLVRALQELPLCLRLNVAAELVQGTVPLEVPQVKPKRTDDGKGLGMQLKGPLGPGGRGPIFELKSVAAGCPVLLGKDNPSPGPSRDSQKPTSPLQSAGDHLEEELDLLLNLDAPIKEGDNILPDQTSQDLKSKEDGEVVQEEEVCAKPSVTEEKNMEPEQPSTSKNVTEEELEDWLDSMIS [AVEN]”, the thermal stability score was -0.264 with HeLa Kyoto [1] (setting [5]) and -2.4 in the series on HeLa Kyoto [1] (cell cycle stage: mitosis). For the same substance, the “solubility change mitosis (log2)” value in the series on HeLa Kyoto [2] is 0.0958. The “solubility in G1/S (log2)” value in the series with HeLa Kyoto [3] was found to be 0.312. Moreover, the melting temperature with HeLa Kyoto [4] (cell cycle stage: G1/S) amounted to 52.9 °C; in the series on HeLa Kyoto [4] (cell cycle stage: mitosis), 52.6 °C.

In the case of “MAVFDTPEEAFGVLRPVCVQLTKTQTVENVEHLQTRLQAVSDSALQELQQYILFPLRFTLKTPGPKRERLIQSVVECLTFVLSSTCVKEQELLQELFSELSACLYSPSSQKPAAVSEELKLAVIQGLSTLMHSAYGDIILTFYEPSILPRLGFAVSLLLGLAEQEKSKQIKIAALKCLQVLLLQCDCQDHPRSLDELEQKQLGDLFASFLPGISTALTRLITGDFKQGHSIVVSSLKIFYKTVSFIMADEQLKRISKVQAKPAVEHRVAELMVYREADWVKKTGDKLTILIKKIIECVSVHPHWKVRLELVELVEDLLLKCSQSLVECAGPLLKALVGLVNDESPEIQAQCNKVLRHFADQKVVVGNKALADILSESLHSLATSLPRLMNSQDDQGKFSTLSLLLGYLKLLGPKINFVLNSVAHLQRLSKALIQVLELDVADIKIVEERRWNSDDLNASPKTSATQPWNRIQRRYFRFFTDERIFMLLRQVCQLLGYYGNLYLLVDHFMELYHQSVVYRKQAAMILNELVTGAAGLEVEDLHEKHIKTNPEELREIVTSILEEYTSQENWYLVTCLETEEMGEELMMEHPGLQAITSGEHTCQVTSFLAFSKPSPTICSMNSNIWQICIQLEGIGQFAYALGKDFCLLLMSALYPVLEKAGDQTLLISQVATSTMMDVCRACGYDSLQHLINQNSDYLVNGISLNLRHLALHPHTPKVLEVMLRNSDANLLPLVADVVQDVLATLDQFYDKRAASFVSVLHALMAALAQWFPDTGNLGHLQEQSLGEEGSHLNQRPAALEKSTTTAEDIEQFLLNYLKEKDVADGNVSDFDNEEEEQSVPPKVDENDTRPDVEPPLPLQIQIAMDVMERCIHLLSDKNLQIRLKVLDVLDLCVVVLQSHKNQLLPLAHQAWPSLVHRLTRDAPLAVLRAFKVLRTLGSKCGDFLRSRFCKDVLPKLAGSLVTQAPISARAGPVYSHTLAFKLQLAVLQGLGPLCERLDLGEGDLNKVADACLIYLSVKQPVKLQEAARSVFLHLMKVDPDSTWFLLNELYCPVQFTPPHPSLHPVQLHGASGQQNPYTTNVLQLLKELQ [TTI1]”, the thermal stability score in the series with HeLa Kyoto [1] (setting [5]) stood at 0.152; with HeLa Kyoto [1] (cell cycle stage: mitosis) it was 0.696. The “solubility change mitosis (log2)” value with HeLa Kyoto [2] was -0.179. The “solubility in G1/S (log2)” value in the series on HeLa Kyoto [3] was -0.12. Moreover, the melting temperature in the series with HeLa Kyoto [4] (cell cycle stage: G1/S) was 49.6 °C; in the series on HeLa Kyoto [4] (cell cycle stage: mitosis), 49.9 °C.

Regarding “MDGIVTEVAVGVKRGSDELLSGSVLSSPNSNMSSMVVTANGNDSKKFKGEDKMDGAPSRVLHIRKLPGEVTETEVIALGLPFGKVTNILMLKGKNQAFLELATEEAAITMVNYYSAVTPHLRNQPIYIQYSNHKELKTDNTLNQRAQAVLQAVTAVQTANTPLSGTTVSESAVTPAQSPVLRIIIDNMYYPVTLDVLHQIFSKFGAVLKIITFTKNNQFQALLQYGDPVNAQQAKLALDGQNIYNACCTLRIDFSKLVNLNVKYNNDKSRDYTRPDLPSGDGQPALDPAIAAAFAKETSLLAVPGALSPLAIPNAAAAAAAAAAGRVGMPGVSAGGNTVLLVSNLNEEMVTPQSLFTLFGVYGDVQRVKILYNKKDSALIQMADGNQSQLAMNHLNGQKMYGKIIRVTLSKHQTVQLPREGLDDQGLTKDFGNSPLHRFKKPGSKNFQNIFPPSATLHLSNIPPSVAEEDLRTLFANTGGTVKAFKFFQDHKMALLQMATVEEAIQALIDLHNYNLGENHHLRVSFSKSTI [PTBP2]”, the thermal stability score was found to be 0.234 in the series with HeLa Kyoto [1] (setting [5]) and 0.47 in the series on HeLa Kyoto [1] (cell cycle stage: mitosis). Besides, the “solubility change mitosis (log2)” value in the series with HeLa Kyoto [2] was -0.0237. The “solubility in G1/S (log2)” value in the series with HeLa Kyoto [3] was determined as 0.308. Further, the melting temperature in the series with HeLa Kyoto [4] (cell cycle stage: G1/S) turned out to be 48.8 °C; in the series with HeLa Kyoto [4] (cell cycle stage: mitosis), 49 °C.

As for OXSR1, the values for the thermal stability score with HeLa Kyoto [1] (setting [5]) and in the series with HeLa Kyoto [1] (cell cycle stage: mitosis) were 1.02 and 0.906, respectively. Also, the “solubility change mitosis (log2)” value with HeLa Kyoto [2] is -0.146. Further, the “solubility in G1/S (log2)” value with HeLa Kyoto [3] turned out to be 0.197. Besides, the melting temperature with HeLa Kyoto [4] (cell cycle stage: G1/S) worked out at 49.1 °C; with HeLa Kyoto [4] (cell cycle stage: mitosis), 49.6 °C.
